Stoichiometry N data for 1 substance are collected here from PMC7641504.

The target in the assay is double mutant (E87C, C312T) AmtB protein complex from E. coli (E. coli) (UniProt P69681). Briefly: native MS.

“double mutant (E87C, C312T) AmtB protein complex from E. coli (from UniProt P69681 23-428) (natural protein)” had a stoichiometry N of 3.

Usually stoichiometry N stands for the number of molecules, sites or subunits per partner or assembly.
